T1: recombinant human PlGF-2 (produced in Pichia) (human, UniProt P49763-3 19-170, limits assumed)
T1 construct: also called huPlGF-2; rhuPlGF-2
T1 sequence (looked up): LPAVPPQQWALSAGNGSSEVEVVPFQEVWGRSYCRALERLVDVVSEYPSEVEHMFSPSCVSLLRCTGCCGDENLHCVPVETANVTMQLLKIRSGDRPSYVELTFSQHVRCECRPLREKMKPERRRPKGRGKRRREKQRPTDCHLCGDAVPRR

T2: human PlGF-1 (human, UniProt P49763-2 19-149, limits assumed)
T2 construct: also called huPlGF-1; huPlGF
T2 sequence (looked up): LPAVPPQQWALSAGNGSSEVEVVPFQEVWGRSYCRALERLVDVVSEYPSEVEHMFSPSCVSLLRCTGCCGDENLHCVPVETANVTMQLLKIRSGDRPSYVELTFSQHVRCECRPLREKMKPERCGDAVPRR


How the values were obtained:
[1] = target: T1, recombinant human PlGF-2 (produced in …); test: Biacore, rhuPlGF-2 (Pichia) immobilized, antibody injected
human PlGF-1 [2] = target: T2, human PlGF-1; test: ELISA, plate coated with huPlGF-1, detection with anti-huIgG-HRP (Fab specific), OPD
Procedure: ELISA plates were coated ON with […] huPlGF-1 in PBS, 100 μL/well, 4° C. After blocking with 1% BSA, 1 hr, RT, a dilution series of humanized Fab16D3 was added, 100 μL/well, the antibody fragment was allowed to bind for 1 hr, RT. Bound humanized Fab16D3 was detected with anti-huIgG-HRP(Fab specific) (100 μL/well, 1 hr RT). The assay was developed with OPD.

human PlGF-1 [3] = target: T2, human PlGF-1; test: ELISA, plate coated with 1 µg/ml huPlGF-1, detection with murine anti-HA and goat anti-murine IgG-HRP, OPD
Procedure: ELISA plates were coated ON with 1 μg/ml huPlGF-1 in PBS, 200 μL/well, 4° C. After blocking with 1% BSA, 1 hr, RT, a dilution series of scFv16D3/humanized scFv16D3 was added, 200 μL/well, the antibody fragment was allowed to bind for 1 hr, RT. Bound scFv16D3 was detected with murine anti-HA (180 μL/well, 1 hr RT) followed by incubation with goat-anti-murine IgG-HRP (Sigma), 170 μL/well, 1 hr, RT. The assay was developed with OPD.

| Kd [1] | EC50 (read off the curve) (human PlGF-1 [2]) | EC50 (read off the curve) (human PlGF-1 [3]) | Binder |
| --- | --- | --- | --- |
| 0.29 nM |  |  | murine monoclonal anti-human PlGF antibody 16D3 (antibody, V domains shown, Whole mouse antibody from hybridoma LMBP 6399CB; also called anti-hPlGF; hp16D3mousecomplAB) VH: QIQLQQSGPELVKPGASVKISCKASGYTFTDYYINWVKLKPGQGLEWIGWIYPGSGNTKYNEKFKGKATLTIDTSSSTAYMQLSSLTSEDTAVYFCVRDSPFFDYWGQGTTLTVSS VL: DIVLSQSPSSLAVSAGEKVTMRCKSSQSLLNSGMRKSFLAWYQQKPGQSPKLLIYWASTRESGVPDRFTGSGSGTDFTLTISSVQAEDLAVYYCKQSYHLFTFGSGTKLEIK |
| 0.131 nM | ~90 µg/mL |  | humanized Fab 16D3 (Fab, V domains shown, also called hp16D3mutcomplFab; hp16D3mutcmplFab) VH: QVQLQQSGAELVKPGASVKISCKASGYTFTDYYINWVKLAPGQGLEWIGWIYPGSGNTKYNEKFKGKATLTIDTSSSTAYMQLSSLTSEDTAVYFCVRDSPFFDYWGQGTLLTVSS VL: DIVLTQSPDSLAVSLGERVTMNCKSSQSLLNSGMRKSFLAWYQQKPGQSPKLLIYWASTRESGVPDRFTGSGSGTDFTLTISSVQAEDVAVYYCKQSYHLFTFGSGTKLEIK |
| 0.161 nM |  |  | humanized antibody 16D3 IgG4 kappa (antibody, V domains shown, Expressed transiently in HEK 293 cells; also called hu16D3; Hu16D3 IgG4κ) VH: QVQLQQSGAELVKPGASVKISCKASGYTFTDYYINWVKLAPGQGLEWIGWIYPGSGNTKYNEKFKGKATLTIDTSSSTAYMQLSSLTSEDTAVYFCVRDSPFFDYWGQGTLLTVSS VL: DIVLTQSPDSLAVSLGERVTMNCKSSQSLLNSGMRKSFLAWYQQKPGQSPKLLIYWASTRESGVPDRFTGSGSGTDFTLTISSVQAEDVAVYYCKQSYHLFTFGSGTKLEIK |
| 0.195 nM |  | ~0.1 µg/mL | humanized scFv of 16D3 (scFv, also called humanized scFv16D3; scFvhp16D3mut) scFv: QVQLQQSGAELVKPGASVKISCKASGYTFTDYYINWVKLAPGQGLEWIGWIYPGSGNTKYNEKFKGKATLTIDTSSSTAYMQLSSLTSEDTAVYFCVRDSPFFDYWGQGTLLTVSSGGGGSGGGGSGGGGSDIVLTQSPDSLAVSLGERVTMNCKSSQSLLNSGMRKSFLAWYQQKPGQSPKLLIYWASTRESGVPDRFTGSGSGTDFTLTISSVQAEDVAVYYCKQSYHLFTFGSGTKLEIKGSYPYDVPDYAGSHHHHHH |
|  |  | ~0.1 µg/mL | scFv of murine antibody 16D3 (scFv, also called scFv16D3; scFv hp16D3) scFv: QIQLQQSGPELVKPGASVKISCKASGYTFTDYYINWVKLKPGQGLEWIGWIYPGSGNTKYNEKFKGKATLTIDTSSSTAYMQLSSLTSEDTAVYFCVRDSPFFDYWGQGTTLTVSSGGGGSGGGGSGGGGSDIVLSQSPSSLAVSAGEKVTMRCKSSQSLLNSGMRKSFLAWYQQKPGQSPKLLIYWASTRESGVPDRFTGSGSGTDFTLTISSVQAEDLAVYYCKQSYHLFTFGSGTKLEIKGSYPYDVPDYAGSHHHHHH |

From patent US20110123525A1 (THROMBOGENICS N V, published 2011)
